From paper PMC12120020

Molecular target: XRCC4 (X-ray repair cross-complementing protein 4) (UniProt Q13426)
Test: co-IP with anti-Flag M2 beads
Details: reference: Flag-AATF wild type, IR; sites S189

AATF (apoptosis antagonizing transcription factor) (from UniProt Q9NY61) Flag-AATF S189A, IR
binding against the reference: stronger
